Test results published in patent US20200283508A1.

Key:
human fibrinogen (human) [1] = target: human fibrinogen (human) (UniProt P02671); assay: ELISA on coated Fg; Km = protein concentration at half of the maximum; R2 0.986
human fibrinogen (human) [2] = target: human fibrinogen (human) (UniProt P02671); assay: competition ELISA on coated Fg; competitor 2 nM rEfb-N GST fusion
human fibrinogen (human) [3] = target: human fibrinogen (human) (UniProt P02671); assay: competition ELISA on coated Fg; competitor 2 nM rCoa-C GST fusion
human fibrinogen (human) [4] = target: human fibrinogen (human) (UniProt P02671); assay: ELISA, GST-tagged fragment on immobilized Fg
[5] = target: Fibrinogen-D fragment (human) (UniProt P02671); assay: ITC (VP-ITC), fit box Model: OneSites beside the isotherm
Sequence of Fibrinogen-D fragment (human) (P02671 130-216 limits assumed, chain 1 of 3): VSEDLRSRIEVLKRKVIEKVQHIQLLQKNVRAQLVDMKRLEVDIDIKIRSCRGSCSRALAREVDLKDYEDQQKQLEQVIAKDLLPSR
Sequence of Fibrinogen-D fragment (human) (P02675 164-491 limits assumed, chain 2 of 3, further chain): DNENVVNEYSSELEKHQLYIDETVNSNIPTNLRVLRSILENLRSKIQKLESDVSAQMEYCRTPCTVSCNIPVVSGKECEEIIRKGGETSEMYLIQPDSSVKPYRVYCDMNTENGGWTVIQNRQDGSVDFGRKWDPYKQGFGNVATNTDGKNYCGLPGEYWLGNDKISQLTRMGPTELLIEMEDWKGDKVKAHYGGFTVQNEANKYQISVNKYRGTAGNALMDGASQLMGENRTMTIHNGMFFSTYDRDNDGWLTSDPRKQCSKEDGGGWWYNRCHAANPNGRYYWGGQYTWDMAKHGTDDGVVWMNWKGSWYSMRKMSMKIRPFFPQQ
Sequence of Fibrinogen-D fragment (human) (P02679 114-432 limits assumed, chain 3 of 3, further chain): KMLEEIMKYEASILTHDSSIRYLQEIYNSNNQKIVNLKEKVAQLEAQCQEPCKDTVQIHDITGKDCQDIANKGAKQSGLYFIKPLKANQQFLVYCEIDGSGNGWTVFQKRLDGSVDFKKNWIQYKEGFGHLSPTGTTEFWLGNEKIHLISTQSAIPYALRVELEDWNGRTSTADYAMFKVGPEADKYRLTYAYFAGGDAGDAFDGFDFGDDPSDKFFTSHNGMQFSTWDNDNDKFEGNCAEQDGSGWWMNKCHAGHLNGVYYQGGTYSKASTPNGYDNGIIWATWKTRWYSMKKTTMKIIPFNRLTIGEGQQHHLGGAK

[6] = target: Fibrinogen-D fragment (human) (UniProt P02671); assay: ITC (VP-ITC), peptide titrated into 10 µM Fg-D, one-site model
human fibrinogen (human) [7] = target: human fibrinogen (human) (UniProt P02671); assay: competition ELISA on coated Fg; competitor 4 nM rCoa-C GST fusion
[8] = target: Fibrinogen-D fragment (human) (UniProt P02671); assay: isothermal titration calorimetry, peptide into 10 µM Fg-D, one-site model
[9] = target: Fibrinogen-D fragment (human) (UniProt P02671); assay: ITC (VP-ITC), fit box Model: OneSites beside the isotherm; unit not given
human fibrinogen (human) [10] = target: human fibrinogen (human) (UniProt P02671); assay: ELISA on coated Fg; Km = protein concentration at half of the maximum; R2 0.991
human fibrinogen (human) [11] = target: human fibrinogen (human) (UniProt P02671); assay: ELISA on coated Fg; Km = protein concentration at half of the maximum; R2 0.995
human fibrinogen (human) [12] = target: human fibrinogen (human) (UniProt P02671); assay: ELISA, GST-tagged fragment on immobilized Fg; apparent affinity
human fibrinogen (human) [13] = target: human fibrinogen (human) (UniProt P02671); assay: solid phase binding assay, Efb coated, Fg titrated; apparent KD; Efb coated on the well, fibrinogen titrated

Sequence of human fibrinogen (human) (P02671 20-629 limits assumed, form in doubt, chain 1 of 3): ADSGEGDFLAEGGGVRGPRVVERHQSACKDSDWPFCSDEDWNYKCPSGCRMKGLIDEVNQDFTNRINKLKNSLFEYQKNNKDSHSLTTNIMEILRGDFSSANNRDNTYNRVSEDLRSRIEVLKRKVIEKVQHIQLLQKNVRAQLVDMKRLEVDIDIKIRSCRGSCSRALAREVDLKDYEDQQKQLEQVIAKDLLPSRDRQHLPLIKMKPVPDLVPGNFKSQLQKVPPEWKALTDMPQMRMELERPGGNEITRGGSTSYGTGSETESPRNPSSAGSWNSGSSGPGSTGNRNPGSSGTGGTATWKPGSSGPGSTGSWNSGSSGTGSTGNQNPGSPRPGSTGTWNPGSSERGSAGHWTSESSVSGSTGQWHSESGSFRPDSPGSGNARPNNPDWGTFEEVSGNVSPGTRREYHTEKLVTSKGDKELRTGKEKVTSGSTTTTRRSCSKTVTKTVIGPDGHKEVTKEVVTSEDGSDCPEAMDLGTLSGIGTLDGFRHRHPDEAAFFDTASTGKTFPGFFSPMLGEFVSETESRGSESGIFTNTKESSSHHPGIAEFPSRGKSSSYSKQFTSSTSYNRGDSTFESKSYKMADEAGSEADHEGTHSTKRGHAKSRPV
Sequence of human fibrinogen (human) (P02675 31-491 limits assumed, form in doubt, chain 2 of 3, further chain): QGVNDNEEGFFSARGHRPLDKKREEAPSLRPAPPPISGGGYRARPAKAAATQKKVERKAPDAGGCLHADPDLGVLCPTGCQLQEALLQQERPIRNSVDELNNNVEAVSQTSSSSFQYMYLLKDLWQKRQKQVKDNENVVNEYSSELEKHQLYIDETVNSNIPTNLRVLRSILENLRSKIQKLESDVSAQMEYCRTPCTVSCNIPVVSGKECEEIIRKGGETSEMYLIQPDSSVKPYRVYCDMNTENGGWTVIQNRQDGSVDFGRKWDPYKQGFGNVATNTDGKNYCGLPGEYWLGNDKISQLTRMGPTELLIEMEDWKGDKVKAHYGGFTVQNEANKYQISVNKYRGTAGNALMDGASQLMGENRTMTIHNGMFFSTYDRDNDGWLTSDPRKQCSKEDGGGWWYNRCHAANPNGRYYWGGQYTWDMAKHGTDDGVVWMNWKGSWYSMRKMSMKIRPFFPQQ
Sequence of human fibrinogen (human) (P02679 27-453 limits assumed, form in doubt, chain 3 of 3, further chain): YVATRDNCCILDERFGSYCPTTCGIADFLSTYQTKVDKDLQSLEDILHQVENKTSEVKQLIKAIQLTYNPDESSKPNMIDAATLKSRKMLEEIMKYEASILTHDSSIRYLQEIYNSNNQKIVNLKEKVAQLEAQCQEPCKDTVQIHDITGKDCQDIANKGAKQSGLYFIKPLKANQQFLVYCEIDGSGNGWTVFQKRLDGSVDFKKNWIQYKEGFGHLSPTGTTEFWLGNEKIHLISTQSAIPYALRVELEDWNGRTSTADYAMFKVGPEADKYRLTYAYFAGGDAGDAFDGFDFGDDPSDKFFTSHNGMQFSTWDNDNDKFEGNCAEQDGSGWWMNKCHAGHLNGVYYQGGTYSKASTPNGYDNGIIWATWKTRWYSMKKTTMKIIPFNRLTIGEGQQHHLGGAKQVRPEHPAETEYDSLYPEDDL

For “Coa-F (Coa 311-505) (from UniProt P08515 1-218)”, the Km (human fibrinogen (human) [1]) was 3.2 nM.

In the case of synthetic peptide Coa-O (Coa 474-505), the IC50 (read off the curve) (human fibrinogen (human) [2]) is reported as 2 to 3 µM and the IC50 (read off the curve) (human fibrinogen (human) [3]) is reported as 9 µM.

“Coa-C (Coa 311-636) (from UniProt P08515 1-218)” showed an EC50 (human fibrinogen (human) [4]) of 0.0075 µM.

Substance sCoa-RV1 (Coa 610-636) (peptide) has a N (binding ratio) [5] of 0.679, a N (binding ratio) [6] of 0.68 and an IC50 (read off the curve) (human fibrinogen (human) [7]) of 10 µM. It also gave a Kd [8] of 0.139 µM, a ΔH [9] of -39800 and a ΔS [9] of -101.

With synthetic peptide Coa-RI (Coa 506-532) the IC50 (read off the curve) (human fibrinogen (human) [3]) was 3 µM and the binding stoichiometry [8] was 0.93.

Substance sCoa-RI3 (Coa 502-528) (peptide) has a N (binding ratio) [6] of 0.9, an IC50 (read off the curve) (human fibrinogen (human) [7]) of 10 µM and a Kd [8] of 0.124 µM.

Substance “Coa-N (Coa 27-310) (from UniProt P08515 1-218)” has a Km (human fibrinogen (human) [10]) of 204 nM.

“recombinant Coagulase, Coa (27-636) (from UniProt P08515 1-218)” was tested, and the Km (human fibrinogen (human) [11]) was 8.9 nM.

Substance Coa-R (Coa 506-636) has a Kd (human fibrinogen (human) [12]) of 0.0008 µM.

Work on “Extracellular fibrinogen binding protein (Efb), full-length secreted form 30-165, His-tagged (from UniProt A6QG59 30-165)” yielded a Kd (human fibrinogen (human) [13]) of 0.001 µM.
